The text below walks through data of patent US20110243962A1 (GENEURO, published 2011).

Assay [1] concerns the target T1, MSRV ENV surface domain fragment (ENV-SU), recombinant from E. coli (MSRV (Multiple Sclerosis associated …)).
T1 chain: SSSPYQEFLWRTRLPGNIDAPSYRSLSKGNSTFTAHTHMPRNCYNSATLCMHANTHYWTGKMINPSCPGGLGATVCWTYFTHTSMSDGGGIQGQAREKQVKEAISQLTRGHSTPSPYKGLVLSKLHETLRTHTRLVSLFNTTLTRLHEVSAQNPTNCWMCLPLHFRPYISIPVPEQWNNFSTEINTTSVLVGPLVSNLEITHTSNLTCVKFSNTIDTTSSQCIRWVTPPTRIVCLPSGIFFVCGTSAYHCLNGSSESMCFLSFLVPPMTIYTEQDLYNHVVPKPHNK
As to the kind of experiment: cell-based or functional assay.

Assay [2] has as its target T2, MSRV complete ENV protein (ENV-T), recombinant from E. coli (MSRV (Multiple Sclerosis associated …)).
T2 construct: also called ENV-T 7A; His-ENV-T
T2 chain: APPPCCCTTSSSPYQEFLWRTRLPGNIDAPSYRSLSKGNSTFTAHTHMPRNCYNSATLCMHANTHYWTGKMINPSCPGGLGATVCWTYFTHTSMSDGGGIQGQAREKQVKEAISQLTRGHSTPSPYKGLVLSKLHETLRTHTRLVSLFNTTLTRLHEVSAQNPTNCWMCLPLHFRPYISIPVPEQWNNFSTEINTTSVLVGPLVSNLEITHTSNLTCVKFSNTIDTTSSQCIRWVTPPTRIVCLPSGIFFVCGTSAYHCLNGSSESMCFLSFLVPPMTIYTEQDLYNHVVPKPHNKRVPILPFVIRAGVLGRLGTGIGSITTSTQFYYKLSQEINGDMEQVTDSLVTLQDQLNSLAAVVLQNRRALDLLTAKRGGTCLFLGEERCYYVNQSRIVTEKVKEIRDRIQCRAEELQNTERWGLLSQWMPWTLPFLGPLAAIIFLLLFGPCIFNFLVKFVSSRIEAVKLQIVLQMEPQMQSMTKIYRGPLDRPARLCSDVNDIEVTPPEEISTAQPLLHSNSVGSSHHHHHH
As to the kind of experiment: ELISA; ENV 0.5 ug/ml coated; mAb 1 ug/ml. The method, then:
(§1) Protocol: Incubation 2 h at 37° C. […] Revelation is made by adding OPD substrate and reading optic density with a spectrophotometer after 30 min (Washing steps with PBS are performed between every step).
Background: In an ELISA, binding on a coated surface is turned into a signal by an enzyme label.

Assay [3] deals with T2, MSRV complete ENV protein (ENV-T), …. Put plainly: ELISA; ENV 0.25 ug/ml coated; mAb 1 ug/ml. The method, then: as §1
Assay [4] shares this target. Put plainly: ELISA; ENV 0.0156 ug/ml coated; mAb 1 ug/ml. How it is done:
as §1

The target is the same in assay [5]. Put plainly: ELISA; ENV-T 7A 1 ug/ml coated; mAb 0.5 ug/ml. How it is done:
as §1

For assay [6] the target is unchanged. Put plainly: ELISA; ENV-T 7A 1 ug/ml coated; mAb 0.25 ug/ml. The method, then: as §1
Assay [7] shares this target. Put plainly: ELISA; coated ENV-T 7A 0.25; ligand 1 microgram. How it is done:
(§2) II-1d Direct ELISA on Microplates Coated with ENV Antigen (ENV-T or ENV-SU as Described Above) [0159] Microwells were coated with 100 μl per well of ENV antigen diluted in 50 mM Sodium Bicarbonate, pH 9.6. Plate were sealed and incubated 2 hours at 37° C. under light agitation. [0160] Microwells were washed 4 times with 250 μl per well of PBS (Phosphate Buffer Saline). After the last, plates were inverted and blotted on absorbent paper to remove any residual buffer. [0161] 100 μl per well of detection antibody according to the present invention (GNbAC1 or its Fab fragment) diluted in PBS+BSA 1% (PBS with 1% of Bovine Serum Albumin) were added. Plate were sealed and incubated 1 hour at room temperature under light agitation. […] Microwells were washed 4 times with 250 μl per well of PBS. After the last, plates were inverted and blotted on absorbent paper to remove any residual buffer. [0163] […] Plate were sealed and incubated 1 hour at room temperature under light agitation. [0164] Microwells were washed 6 times with 250 μl per well of PBS. After the last, plates were inverted and blotted on absorbent paper to remove any residual buffer. [0165] 100 μl par well of Substrate Solution (1 tablet of o-Phenylenediamine (OPD) diluted in 10 ml of 0.05M Phosphate Citrate Buffer pH5+10 μl H2O2 30%, prepared at the last moment) were added. Plates were incubated 30 min at room temperature in the dark. […] 50 μl per well of Stop Solution 2N H2SO₄ were added. [0167] The absorbance was read at 490 nm within 30 minutes of stopping reaction.
(§3) Env-T antigen is coated onto microtiter ELISA plate wells with serial dilutions ranging from 1 μg/ml to about 0.01 μg/ml.

Assay [8] has the same target. Put plainly: ELISA; coated ENV-T 7A 0.0078; ligand 1 microgram. The method, then: as §2, §3
Assay [9] shares this target. Put plainly: ELISA; coated ENV-T 7A 0.0156; ligand 1 microgram. How it is done:
as §2, §3

For assay [10] the target is unchanged. As to the kind of experiment: ELISA; ENV-T 7A 1 ug/ml coated; mAb 0.03125 ug/ml. How it is done:
as §1

The target is the same in assay [11]. As to the kind of experiment: ELISA; ENV-T 7A 1 ug/ml coated; mAb concentration cell blank (top of series). How it is done:
as §1

Assay [12] has the same target. Put plainly: ELISA; coated ENV-T 7A, concentration cell blank (top of series, 1 µg/ml per paragraph 198); ligand 1 microgram. The method, then:
as §2, §3

Substitutions are numbered along the chain they refer to.

B1: GNbAC1 murine monoclonal antibody (IgG1/kappa) (antibody, V domains shown)
VH: QVQLQQSGAELVRPGAPVTLSCKASGYTFTDYEMHWVKQTPVHGLEWIGAVAPETGGTAYNQKFKGKATLTAAKSSSTAYMELRSLTSEDSAVYYCTSTVVPFAYWGQGTLVTVSA
VL: QIVLTQSPAIMSASPGEKVTISCSASSSVSYMYWYQQKPGSSPKAWIYRTSNLASGVPGRFSGSGSGTSYSLTISSMEAEDAATYYCQQYQSLPLTFGSGTKLEIK
notes: Murine IgG1/kappa from hybridoma; also called murine IgG1; muIgG
For B1, the “IFN-gamma Inhibition (%)” value in [1] amounted to 52%. Besides, the “IFN-gamma Response (%)” value in [1] came out at 48%. In assay [1], the “IFN-gamma pg/ml, PBMC 72 h” value stood at 270 pg/mL. Moreover, the “IL-6 pg/ml, PBMC 72 h” value in [1] came to 42200 pg/mL. Also, the “IL-6 Inhibition (%)” value in assay [1] turned out to be 52%. Also, in [1], the “IL-6 Response (%)” value worked out at 48%. Besides, the optic density in [2] turned out to be 1.87 OD; in assay [3], 1.42 OD; in assay [4], 0.186 OD; in assay [5], 1.85 OD; in [6], 1.21 OD; in assay [10], 0.406 OD. In addition, in assay [11], the optic density worked out at 2 OD. For the same molecule, the optical density in assay [7] stood at 2.84 OD; in assay [8] it was 0.625 OD; in assay [9], 1.3 OD; in [12], 3 OD.

B2: Chimeric GNb AC1 IgG1 (human IgG1 constant regions with murine VH and VL) (antibody, V domains shown)
VH: B1 VH
VL: B1 VL
notes: Human IgG1 heavy constant region and human kappa constant region, made in CHO cells; also called GNbAC1 chimeric IgG1; Ligand in human IgG1
Take B2: the “IFN-gamma Inhibition (%)” value in assay [1] was -9%. Also, the “IFN-gamma Response (%)” value in assay [1] worked out at 109%. For the same molecule, the “IFN-gamma pg/ml, PBMC 72 h” value in assay [1] is 606 pg/mL. In addition, the “IL-6 pg/ml, PBMC 72 h” value in assay [1] was found to be 32900 pg/mL. Further, the “IL-6 Inhibition (%)” value in assay [1] was found to be 63%. Further, in assay [1], the “IL-6 Response (%)” value worked out at 37%. Besides, the optic density in [2] came out at 2.53 OD; in [3], 2.27 OD; in assay [4], 0.888 OD; in [5] it was 2.54 OD; in assay [6], 2.64 OD; in assay [10], 1.98 OD. The optic density in [11] amounted to 2.54 OD. The optical density in [7] was 2.89 OD; in assay [8], 0.815 OD; in [9], 1.26 OD; in assay [12], 3 OD.

B3: Chimeric GNb AC1 IgG4 (human IgG4 constant regions with murine VH and VL) (antibody, V domains shown)
VH: B1 VH with P17S
VL: QIVLTQSPAIMSASPGEKVTISCSASSSVSYMYWYQQKPGSSPKAWIYRTSNLASGVPGRFSGSGSGTSYSLTISSMEAEDAATYYCQQYQSLPLTFGSGTKLEIKR
notes: also called GNbAC1 chimeric IgG4; GNbAC1-IgC4
Turning to B3, the “IFN-gamma Inhibition (%)” value in assay [1] was determined as 43%. The “IFN-gamma Response (%)” value in assay [1] was determined as 57%. Besides, the “IFN-gamma pg/ml, PBMC 72 h” value in assay [1] stood at 318 pg/mL. For the same molecule, the “IL-6 pg/ml, PBMC 72 h” value in assay [1] was determined as 53000 pg/mL. The “IL-6 Inhibition (%)” value in [1] is 40%. In addition, in [1], the “IL-6 Response (%)” value was 60%. The optic density came to 2.26 OD in [2]; 2.3 OD in assay [3]; 0.71 OD in assay [4]; 2.49 OD in assay [5]; 2.17 OD in assay [6]; 1.26 OD in assay [10]. In assay [11], the optic density is 2.38 OD. In addition, the optical density amounted to 2.52 OD in [7], 0.692 OD in assay [8], 1.02 OD in [9] and 3 OD in [12].
